Test results reported in patent publication US20240417436A1 (BRIGHT PEAK THERAPEUTICS, published 2024).
Values belong to the binder of their own block, whether it stands above or below them. *1 amine or outer side, *2 acyl side, *3 side chain or, on linkers, in order; H or OH if unused. Bridges are numbered along the chain shown (N, C = ends). Primed or numbered codes have the meaning given here. [ ]: non-standard residue; d: D form. cleavable peptide RGRRVANLVG = CC(C)C[C@H](NC(=O)[C@H](CC(N)=O)NC(=O)[C@H](C)NC(=O)[C@@H](NC(=O)[C@H](CCCNC(=N)N)NC(=O)[C@H](CCCNC(=N)N)NC(=O)CNC(=O)[C@H](CCCNC(=N)N)N[*:1])C(C)C)C(=O)N[C@H](C(=O)NCC(=O)[*:2])C(C)C; Ygp = O-(8x polyethylene glycol-amino)-tyrosine; Yn3 = O-(9x polyethylene glycol-azido)-tyrosine; Ygp(3) = O-(PEG8-amino)-tyrosine; Yn3(3) = O-(PEG9-azido)-tyrosine; hSer = N[C@@H](CCO)C(=O)O; Nle = CCCC[C@H](N)C(=O)O

Key:
[1] = target: T1, recombinant human IL-2 receptor beta containing a His-tag and Avi-Tag (R&D Systems #AVI10459) (human, UniProt P14784 27-239); assay: BLI (Octet), receptor on SAX2 sensor, IL-2 as analyte; construct CMP-167, intact (not the MMP2-treated row r22)
T1 construct: bought protein, held on the Octet SAX2 sensor; also called CD122; IL-2Rβ
T1 sequence (looked up): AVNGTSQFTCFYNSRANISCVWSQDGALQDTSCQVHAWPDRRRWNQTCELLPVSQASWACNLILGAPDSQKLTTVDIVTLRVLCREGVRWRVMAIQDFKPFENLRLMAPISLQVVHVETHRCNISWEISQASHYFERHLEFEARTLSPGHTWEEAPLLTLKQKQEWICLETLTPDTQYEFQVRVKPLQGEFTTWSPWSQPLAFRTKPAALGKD
Description: (§1) Bilayer interferometry (BLI) assays were used to measure the binding constants between activatable IL-2 polypeptides (and activated versions thereof) to IL-2 receptor subunits or receptor complexes. BLI assays were conducted on an Octet® R8 instrument. Assay plates were 96 well, polypropylene, F-bottom (chimney well), black microplates (Greiner Bio-one, Cat. No: 655209). The biosensors were Octet® SAX2 (Sartorius, Cat. No: 18-5136). The assay buffer was 1× Kinetic Buffer (Sartorius, Cat. no: 18-5136) or Phosphate Buffered Saline (PBS) that contained 0.02% (v: v) Tween 20 (Polysorbate 20) and 0.1% (w/v) bovine serum albumin (BSA). The sensor was regenerated between measurements in 10 mM glycine pH 2.7 buffer.
(§2) Sensor attached receptors were either recombinant human IL-2 receptor beta containing a His-tag and Avi-Tag™ (R&D Systems™ #AVI10459) or an Avi-Tag™ Fc with human IL-2R beta and IL-2R gamma attached (Acrobiosystems Cat. no: ACRB-ILG-H82F3-25UG). Receptors were reconstituted from lyophilized powder to 500 μg/ml in PBS. Analytes were diluted in Kinetic buffer to 300 nM, then serially diluted to lower concentrations.

[2] = target: T1, recombinant human IL-2 receptor beta …; assay: BLI (Octet), receptor on SAX2 sensor, IL-2 as analyte; construct CMP-328
Description: as §1, §2

[3] = target: T1, recombinant human IL-2 receptor beta …; assay: BLI (Octet), receptor on SAX2 sensor, IL-2 as analyte
[4] = target: T2, Avi-Tag Fc with human IL-2R beta and IL-2R gamma attached (Acrobiosystems ACRB-ILG-H82F3-25UG) (human, UniProt P14784 27-239; P31785 23-262); assay: as above
T2 construct: bought heterodimer; also called CD122 CD132; CD122/CD132 complex
T2 sequence (looked up) 1: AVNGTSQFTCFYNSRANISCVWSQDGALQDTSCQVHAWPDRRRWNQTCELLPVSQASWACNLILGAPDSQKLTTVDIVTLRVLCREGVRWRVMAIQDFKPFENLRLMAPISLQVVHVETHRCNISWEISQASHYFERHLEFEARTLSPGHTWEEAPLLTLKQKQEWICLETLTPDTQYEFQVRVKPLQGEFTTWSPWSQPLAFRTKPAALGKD
T2 sequence (looked up) 2: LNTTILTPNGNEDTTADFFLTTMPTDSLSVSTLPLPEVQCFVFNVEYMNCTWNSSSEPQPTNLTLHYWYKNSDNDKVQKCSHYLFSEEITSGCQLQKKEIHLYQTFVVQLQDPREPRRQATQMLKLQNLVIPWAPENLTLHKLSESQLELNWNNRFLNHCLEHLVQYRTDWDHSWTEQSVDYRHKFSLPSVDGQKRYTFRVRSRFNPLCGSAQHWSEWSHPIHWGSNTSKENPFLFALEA

[5] = target: T1, recombinant human IL-2 receptor beta …; assay: BLI (Octet), receptor on SAX2 sensor, IL-2 as analyte; construct CMP-166, intact (not the MMP2-treated row r19)
Description: as §1, §2

[6] = target: T1, recombinant human IL-2 receptor beta …; assay: BLI (Octet), receptor on SAX2 sensor, IL-2 as analyte; construct CMP-313
Description: as §1, §2

- Kd [2]: 0.034 nM
- koff [3]: 0.00154 s⁻¹
- kon [3]: 4.52e+07 M⁻¹ s⁻¹
- Kd [4]: 24.9 nM
- koff [4]: 0.00194 s⁻¹
- kon [4]: 77800 M⁻¹ s⁻¹
B2: CMP-328 (ligand)
chain: APTSSSTKKTQLQLEHLLLDLQEILNGINNYKNPKLTR[Nle]L[hSer][Yn3(3)]KF[Ygp(3)][Nle]PKKATELKHLQCLEEELKPLEEVL[hSer]LAQSKNFHLRPRDLISNINVIVLELKGSETTF[hSer]CEYADETATIVEFLNRWITFSQSIISTLT
modifications: disulfide 58-105; linker 9-23 via cleavable peptide RGRRVANLVG; also: macrocycle: cleavable peptide bridging Lys9 and Glu23 side chains (structure drawing only)

- koff [4]: 0.00148 s⁻¹
- Kd [6]: 163 nM
B4: CMP-313 (ligand)
chain: APTSSSTKKTQLQLEHLLLDLQK(KKRGRRVANLVG)ILNGINNYKNPKLTR[Nle]L[hSer][Yn3(3)]KF[Ygp(3)][Nle]PKKATELKHLQCLEEELKPLEEVL[hSer]LAQSKNFHLRPRDLISNINVIVLELKGSETTF[hSer]CEYADETATIVEFLNRWITFSQSIISTLT
modifications: disulfide 58-105; also: branched 27x PEG chains on the attached peptide

The remaining lines, values behind:

B1: CMP-167 (ligand)
chain: APTSSSTKKTQLQLEHLLLDLQKILNGINNYKNPKLTR[Nle]L[hSer][Yn3]KF[Ygp][Nle]PKKATELKHLQCLEEELKPLEEVL[hSer]LAQSKNFHLRPRDLISNINVIVLELKGSETTF[hSer]CEYADETATIVEFLNRWITFSQSIISTLT
modifications: disulfide 58-105 (inferred); bridge N-23; not fully specified (bridges); also: cleavable peptide (sequence not given here) joined to N-terminus via glutaryl-PEG9 and to Lys23 side chain
- Kd [1]: 215 nM

B3: CMP-166 (ligand)
chain: APTSSSTKKTQLQLEHLLLDLQKILNGINNYKNPKLTR[Nle]L[hSer][Yn3]KF[Ygp][Nle]PKKATELKHLQCLEEELKPLEEVL[hSer]LAQSKNFHLRPRDLISNINVIVLELKGSETTF[hSer]CEYADETATIVEFLNRWITFSQSIISTLT
modifications: disulfide 58-105 (inferred); bridge N-23; not fully specified (bridges); also: cleavable peptide (sequence not given here) joined to N-terminus via glutaryl-PEG4 and to Lys23 side chain
- Kd [5]: 614 nM
